{"source": "patent US20120014945A1", "about": "(ACADEMIA SINICA, published 2012)", "molecules": {"B1": {"name": "DB25-2 (antibody, V domains shown)", "VH": "QVQLKESGPGLVQPSQSLSITCTVSGFSLTDYGVHWIRQSPGKGLEWLGVIWRGGITDYNAAFMSRLSITKDNSKSQVFFKMDSLQPDDSAIYYCAKNFGTHYYGSNYGNFDYWGQGTTLTVSS", "VL": "VVMTQTPKFLLVSAGDRVTITCKASQSVSNDVAWYQQKPGQSPKLLIYYVSNRYSGVPDRFTGSGYGTDFTFTINTVQAEDLAVYFCQQDYSSPYTFGGGTKLEIK"}}, "key": {"[1]": {"molecular_target": "DENV-2 (16681) envelope (E) protein (dengue virus type 2 (DENV-2 16681)) (UniProt P29990)", "assay": "cell-based or functional assay"}, "[2]": {"molecular_target": "T1, DENV-3 (H87) envelope (E) protein (dengue virus type 3 (DENV-3 H87), UniProt P27915 281-773)", "T1 construct": "whole, on cells", "assay": "ELISA on DENV-3-infected C6/36 cells"}, "[3]": {"molecular_target": "T2, DENV-4 (H241) envelope (E) protein (dengue virus type 4 (DENV-4 H241), UniProt Q58HT7 280-774)", "T2 construct": "whole, on cells", "T2 sequence (Q58HT7 280-774)": "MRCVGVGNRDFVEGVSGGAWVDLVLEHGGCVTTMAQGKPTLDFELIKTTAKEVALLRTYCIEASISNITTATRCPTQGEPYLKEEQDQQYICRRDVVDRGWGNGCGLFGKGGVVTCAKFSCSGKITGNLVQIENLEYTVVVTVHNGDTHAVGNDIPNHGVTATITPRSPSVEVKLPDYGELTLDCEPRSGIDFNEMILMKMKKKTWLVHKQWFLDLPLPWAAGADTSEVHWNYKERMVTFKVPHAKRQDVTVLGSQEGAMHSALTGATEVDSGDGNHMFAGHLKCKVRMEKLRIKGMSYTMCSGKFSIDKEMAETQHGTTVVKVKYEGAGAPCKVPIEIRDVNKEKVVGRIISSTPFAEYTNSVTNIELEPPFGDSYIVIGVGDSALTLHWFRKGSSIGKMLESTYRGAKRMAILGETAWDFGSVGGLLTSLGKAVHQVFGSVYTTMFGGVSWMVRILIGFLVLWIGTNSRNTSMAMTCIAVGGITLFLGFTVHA", "assay": "ELISA on DENV-4-infected C6/36 cells"}}, "data": [{"molecule": "3H5 (antibody)", "values": [{"measurement": "PRNT50 (µg/ml), D2", "setting": "[1]", "value": "< 0.41", "unit": "µg/mL"}, {"measurement": "concentration of complete inhibition of viral infection (PRNT)", "setting": "[1]", "value": 11, "unit": "µg/mL"}]}, {"molecule": "normal mouse IgG (antibody)", "values": [{"measurement": "neutralizing activity (PRNT)", "setting": "[1]", "value": "> 100", "unit": "µg/mL"}]}, {"molecule": "4G2 (antibody)", "values": [{"measurement": "PRNT50 (µg/ml), D2", "setting": "[1]", "value": "< 11", "unit": "µg/mL"}]}, {"molecule": "B1", "values": [{"measurement": "binding result", "setting": "[2]", "value": "no binding (tested: A490 < 0.2 (MAb at 1 µg/ml))"}, {"measurement": "binding result", "setting": "[3]", "value": "no binding (tested: A490 < 0.2 (MAb at 1 µg/ml))"}]}]}
